Measurements reported in publication PMC12871931, “The importin‐alpha superfamily engages in ethylene signaling by shuttling [sequence] INSENSITIVE 2 from the endoplasmic reticulum to the nucleus” (The Febs Journal, 2025).
Ends that are not written are not given here. * marks the point of attachment. 5‑TAMRA = 5-carboxytetramethylrhodamine, N-terminal label, CN(C)c1ccc2c(-c3ccc(C(=O)*)cc3C(=O)[O-])c3ccc(N(C)C)cc3[o+]c2c1

Experiments:
Details in all cases: both partners purified
[1] = molecular target: T1, importin α3 (IMPα3), Arabidopsis thaliana, recombinant (Arabidopsis thaliana, UniProt O04294 1-531); assay: fluorescence polarisation; direct titration: TAMRA-NOP-1 constant at 250 nM, IMPα protein concentration varied; 50 μL samples; LS55 spectrometer; Kd by Logistic Fit in Origin; three independent measurements
T1 construct: importin alpha isoform 3 of Arabidopsis thaliana; gene isolated from A. thaliana, cloned into pETEV21a; source: E. coli BL21pRARE, purified (Ni2+-IMAC)

[2] = molecular target: T2, importin α9 (IMPα9), Arabidopsis thaliana, recombinant (Arabidopsis thaliana, UniProt F4KF65 1-519); assay: as above
T2 construct: importin alpha isoform 9 of Arabidopsis thaliana; gene synthesised by GenScript, cloned into pETEV21a; source: E. coli BL21pRARE, purified (Ni2+-IMAC)
T2 sequence (looked up): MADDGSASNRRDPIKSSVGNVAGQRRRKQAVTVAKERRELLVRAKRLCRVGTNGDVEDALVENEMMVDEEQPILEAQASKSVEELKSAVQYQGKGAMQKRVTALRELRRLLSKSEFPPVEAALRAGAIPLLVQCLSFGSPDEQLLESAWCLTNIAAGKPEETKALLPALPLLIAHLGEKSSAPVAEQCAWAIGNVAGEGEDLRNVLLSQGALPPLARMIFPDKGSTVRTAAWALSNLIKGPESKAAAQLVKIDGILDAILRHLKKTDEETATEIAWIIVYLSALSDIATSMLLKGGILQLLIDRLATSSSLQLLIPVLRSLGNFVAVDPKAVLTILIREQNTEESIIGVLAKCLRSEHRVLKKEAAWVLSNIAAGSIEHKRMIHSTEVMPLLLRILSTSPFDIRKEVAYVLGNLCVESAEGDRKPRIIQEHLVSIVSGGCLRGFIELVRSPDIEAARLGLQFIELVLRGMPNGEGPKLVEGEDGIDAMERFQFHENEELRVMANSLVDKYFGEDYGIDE

[3] = molecular target: T3, importin α5 (IMPα5), Arabidopsis thaliana, recombinant (Arabidopsis thaliana, UniProt Q9FJ09 1-519); assay: as above
T3 construct: importin alpha isoform 5 of Arabidopsis thaliana; gene synthesised by GenScript, cloned into pETEV21a; IMPα5 was additionally cloned into pETEV16b (N-terminal deca-His-tag); source: E. coli BL21pRARE, purified (Ni2+-IMAC)
T3 sequence (looked up): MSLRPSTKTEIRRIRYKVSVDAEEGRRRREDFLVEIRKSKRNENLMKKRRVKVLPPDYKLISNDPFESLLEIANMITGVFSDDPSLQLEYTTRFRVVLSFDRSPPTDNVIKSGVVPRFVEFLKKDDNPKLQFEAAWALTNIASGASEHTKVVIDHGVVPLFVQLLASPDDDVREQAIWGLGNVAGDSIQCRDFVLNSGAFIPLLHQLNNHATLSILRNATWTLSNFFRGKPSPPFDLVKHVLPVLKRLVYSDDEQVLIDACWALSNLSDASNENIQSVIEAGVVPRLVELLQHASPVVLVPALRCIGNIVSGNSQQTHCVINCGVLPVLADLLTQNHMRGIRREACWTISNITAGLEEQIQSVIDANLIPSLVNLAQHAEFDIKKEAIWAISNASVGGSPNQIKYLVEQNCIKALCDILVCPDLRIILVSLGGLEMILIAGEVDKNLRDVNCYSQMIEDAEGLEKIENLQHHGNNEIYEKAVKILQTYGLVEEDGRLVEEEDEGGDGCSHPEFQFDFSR

[4] = molecular target: T4, importin α8 (IMPα8), Arabidopsis thaliana, recombinant (Arabidopsis thaliana, UniProt Q9FJ92 1-441); assay: as above
T4 construct: importin alpha isoform 8 of Arabidopsis thaliana (contains only ARM repeats, no IBB domain); gene isolated from A. thaliana, cloned into pETEV21a; source: E. coli BL21gold, purified (Ni2+-IMAC)
T4 sequence (looked up): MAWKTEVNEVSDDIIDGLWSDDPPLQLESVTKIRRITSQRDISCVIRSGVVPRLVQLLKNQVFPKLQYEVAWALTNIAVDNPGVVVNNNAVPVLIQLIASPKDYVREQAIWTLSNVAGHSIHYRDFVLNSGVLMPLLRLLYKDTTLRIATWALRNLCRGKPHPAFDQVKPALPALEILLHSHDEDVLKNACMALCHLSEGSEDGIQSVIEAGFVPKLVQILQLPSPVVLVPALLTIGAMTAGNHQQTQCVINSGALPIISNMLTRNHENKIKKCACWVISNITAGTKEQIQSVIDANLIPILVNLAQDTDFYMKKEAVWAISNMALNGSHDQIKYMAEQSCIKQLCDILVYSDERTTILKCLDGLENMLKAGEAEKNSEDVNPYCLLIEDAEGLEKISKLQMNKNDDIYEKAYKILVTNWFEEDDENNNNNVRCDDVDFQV

[5] = molecular target: T5, importin α4 (IMPα4), Arabidopsis thaliana, recombinant (Arabidopsis thaliana, UniProt O80480 1-538, biotin (Biotin-PEG4-NHS ester Protein Labeling Kit) in the BLI experiments only); assay: as above
T5 construct: importin alpha isoform 4 of Arabidopsis thaliana; gene isolated from A. thaliana, cloned into pETEV21a; Unlabelled in fluorescence polarisation; biotinylated and held on streptavidin tips in BLI; source: E. coli BL21pRARE, purified (Ni2+-IMAC)

[6] = molecular target: T6, importin α6 (IMPα6), Arabidopsis thaliana, recombinant (Arabidopsis thaliana, UniProt Q9FWY7 1-538); assay: as above
T6 construct: importin alpha isoform 6 of Arabidopsis thaliana; gene synthesised by GenScript, cloned into pETEV21a; source: E. coli BL21pRARE, purified (Ni2+-IMAC)
T6 sequence (looked up): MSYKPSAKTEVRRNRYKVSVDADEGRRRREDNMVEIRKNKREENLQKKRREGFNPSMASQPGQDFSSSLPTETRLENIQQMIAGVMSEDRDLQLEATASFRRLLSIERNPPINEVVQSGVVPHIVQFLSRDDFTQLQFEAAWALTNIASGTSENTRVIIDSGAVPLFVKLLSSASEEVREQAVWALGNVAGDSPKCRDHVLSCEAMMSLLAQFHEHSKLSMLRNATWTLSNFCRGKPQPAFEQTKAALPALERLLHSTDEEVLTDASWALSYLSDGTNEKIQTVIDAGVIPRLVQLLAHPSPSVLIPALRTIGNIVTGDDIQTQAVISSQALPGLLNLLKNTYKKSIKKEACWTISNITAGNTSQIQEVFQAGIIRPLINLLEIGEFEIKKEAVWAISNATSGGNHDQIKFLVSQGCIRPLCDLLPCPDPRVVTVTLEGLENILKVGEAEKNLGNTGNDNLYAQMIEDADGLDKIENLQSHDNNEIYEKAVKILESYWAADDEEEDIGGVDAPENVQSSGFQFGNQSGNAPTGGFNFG

[7] = molecular target: T7, importin α2 (IMPα2), Arabidopsis thaliana, recombinant (Arabidopsis thaliana, UniProt F4JL11 1-535); assay: as above
T7 construct: importin alpha isoform 2 of Arabidopsis thaliana; gene isolated from A. thaliana, cloned into pETEV21a; source: E. coli BL21pRARE, purified (Ni2+-IMAC)

[8] = molecular target: T5, importin α4 (IMPα4), Arabidopsis …; assay: BLI; Octet K2; biotinylated ΔIBB_IMPα1 or IMPα4 loaded (15 μM, 600 s) on streptavidin biosensors; peptides/protein in solution; 100 mM Tris pH 7.0, 100 mM KCl, 0.01% Tween 20; room temperature; 300 s association, 300 s dissociation; dose response curves, 1:2 heterogeneous ligand model
[9] = molecular target: T5, importin α4 (IMPα4), Arabidopsis …; assay: fluorescence polarisation; competition: TAMRA-NOP-1 and IMPα4 (6 μM) held constant, unlabelled competitor concentration varied; Logistic Fit in Origin; n = 3

T5 sequence (O80480 whole entry, canonical isoform): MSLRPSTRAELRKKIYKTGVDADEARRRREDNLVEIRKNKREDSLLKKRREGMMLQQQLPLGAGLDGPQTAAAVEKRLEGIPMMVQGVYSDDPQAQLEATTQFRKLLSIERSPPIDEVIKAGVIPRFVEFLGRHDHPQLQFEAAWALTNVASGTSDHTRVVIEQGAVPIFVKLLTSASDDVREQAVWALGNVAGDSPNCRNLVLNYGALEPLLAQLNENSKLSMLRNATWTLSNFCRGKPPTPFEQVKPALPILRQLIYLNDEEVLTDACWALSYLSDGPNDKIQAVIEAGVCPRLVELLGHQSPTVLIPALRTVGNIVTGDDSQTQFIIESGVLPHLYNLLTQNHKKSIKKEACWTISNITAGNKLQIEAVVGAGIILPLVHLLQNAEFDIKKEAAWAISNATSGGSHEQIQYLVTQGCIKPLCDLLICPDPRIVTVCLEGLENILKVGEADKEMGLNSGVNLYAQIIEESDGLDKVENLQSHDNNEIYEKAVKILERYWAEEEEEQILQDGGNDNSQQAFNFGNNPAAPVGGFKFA
T7 sequence (F4JL11 whole entry, canonical isoform): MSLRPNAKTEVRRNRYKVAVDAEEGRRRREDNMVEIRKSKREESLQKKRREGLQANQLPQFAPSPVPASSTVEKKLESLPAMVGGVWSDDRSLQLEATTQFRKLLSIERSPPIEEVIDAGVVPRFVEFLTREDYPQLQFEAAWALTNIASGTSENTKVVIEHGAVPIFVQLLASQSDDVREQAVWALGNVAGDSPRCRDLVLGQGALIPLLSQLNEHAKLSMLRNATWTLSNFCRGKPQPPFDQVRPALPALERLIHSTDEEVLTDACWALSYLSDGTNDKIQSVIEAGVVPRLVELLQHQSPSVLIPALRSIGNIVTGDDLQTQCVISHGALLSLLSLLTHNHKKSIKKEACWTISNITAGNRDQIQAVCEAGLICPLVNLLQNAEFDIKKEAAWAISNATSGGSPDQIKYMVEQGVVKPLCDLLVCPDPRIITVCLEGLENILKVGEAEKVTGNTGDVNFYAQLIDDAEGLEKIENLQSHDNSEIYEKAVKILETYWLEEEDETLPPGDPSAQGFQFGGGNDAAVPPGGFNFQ
T1 sequence (O04294 whole entry, canonical isoform): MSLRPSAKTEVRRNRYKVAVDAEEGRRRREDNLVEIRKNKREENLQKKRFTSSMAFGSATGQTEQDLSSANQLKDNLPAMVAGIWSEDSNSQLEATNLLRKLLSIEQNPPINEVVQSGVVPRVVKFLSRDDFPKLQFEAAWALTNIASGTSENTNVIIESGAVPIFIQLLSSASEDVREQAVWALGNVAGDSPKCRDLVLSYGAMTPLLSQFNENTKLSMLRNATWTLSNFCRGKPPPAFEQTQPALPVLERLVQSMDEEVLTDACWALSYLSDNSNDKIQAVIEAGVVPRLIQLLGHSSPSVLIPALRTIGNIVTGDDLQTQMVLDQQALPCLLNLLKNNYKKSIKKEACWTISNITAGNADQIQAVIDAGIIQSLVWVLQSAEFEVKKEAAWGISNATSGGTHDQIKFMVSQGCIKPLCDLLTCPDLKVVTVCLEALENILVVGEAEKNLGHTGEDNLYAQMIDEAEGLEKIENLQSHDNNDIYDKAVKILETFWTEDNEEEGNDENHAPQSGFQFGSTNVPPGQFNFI

B1: TAMRA‐NOP‐1 (EIN2 NLS peptide, N‐terminally labeled with 5‐TAMRA) (peptide)
peptide: {5‑TAMRA}-LKRYKRRL
notes: also called fluorescently labeled NOP‐1; source: synthetic peptide (solid-phase peptide synthesis, Fmoc, made in house)
**Q.** Does B1 bind [1]?
**A.** binds

**Q.** And the Kd [2]?
**A.** 13.8 ± 0.9 µM

**Q.** And the Kd [3]?
**A.** 12.9 ± 0.9 µM

**Q.** And the Kd [4]?
**A.** 7.9 ± 0.2 µM

**Q.** What about the Kd [5] of the same binder?
**A.** ~6 µM

**Q.** And the Kd [6]?
**A.** 8.7 ± 1.5 µM

**Q.** Does B1 bind [7]?
**A.** binds

B2: NOP‐1 (EIN2 NLS peptide, EIN2 residues 1262–1269) (peptide)
peptide: LKRYKRRL
notes: 8 residues; The methods speak of amidated C-termini and acetylated N-termini of 'the D-ri-peptides'; whether this holds for NOP-1 is not clear; also called EIN2‐NLS core motif; basic EIN2‐NLS probe; source: synthetic peptide, bought: GenScript
**Q.** What does the source list for B2?
**A.** Kd [8]: 7.6 µM; Kd [9]: 4.1 ± 0.4 µM

B3: N41P‐1 (EIN2 residues 1229–1269) (peptide, UniProt Q9S814 1229-1269, looked up)
peptide: KDVEMAISCRKGRTGTAAGDVAFPKGKENLASVLKRYKRRL
notes: 41 residues; The methods speak of amidated C-termini and acetylated N-termini of 'the D-ri-peptides'; whether this holds for N41P-1 is not clear; also called extended EIN2‐NLS probe N41P‐1; source: synthetic peptide, bought: GenScript
**Q.** How did the Kd [8] turn out when B3 was run?
**A.** 9.8 µM

**Q.** And the Kd [9]?
**A.** 8.1 ± 1.1 µM

B4: GB1‐AtEIN2C^1215–1281 (domain or fragment, Arabidopsis thaliana, UniProt Q9S814 1215-1281, looked up)
chain: KGKCTTAVTLLDLIKDVEMAISCRKGRTGTAAGDVAFPKGKENLASVLKRYKRRLSNKPVGMNQDGP
notes: cloned into pETEV16b with a GB1-domain at the N terminus to enhance solubility; also called GB1_AtEIN2^1215–1281; shortened EIN2 CEND; source: E. coli BL21pRARE, purified (Ni2+-IMAC); not shown: GB1 domain, N-terminal, kept
**Q.** What does the source list for B4?
**A.** Kd high [8]: 21.4 µM; Kd low [8]: 0.455 µM; Kd [9]: 22.1 ± 2.8 µM
